Assay results published in PMC3592470 (Nucleic Acids Research, 2012).

B1: BcgI A subunit, wild type (as a subunit of WT BcgI) (enzyme, UniProt Q07605 1-637, looked up)
chain: MVNEKTSTDQLVRRFIEDLGVTYEEQGSSNIQIKQALRSASKSKSQSGVGKPEFIFFSGNHLIIVEDKLAIDKLEYKNNDGIIDTEFPFRRDYAVNGAVHYARHIIEKTNSYKEVIAIGIAGDGLHYQIHPYFVSETELKKLPEMKSLEDISPENIEEFYKVAVLGELPKEERELREVNKIAADMHEDLRNYGQLEGEKKATVVSAILLALEEPTFSLNQLIGSDRVGGTDGEIIFNAVRVYLENAGIVPYAKVGEMLDQFIFIQRDVTLNTVNSNLEMTPLKYFATTLEAEIMDKIKSNTDFDILGNFYGEFVKYGGNDGNPLGIVLTPRHITSLMAELIGINKSDFVLDPACGTGAFLISAMNRMLGQAENDDERRDIKQNRLYGIEIQQKLFTIATTNMILRGDGKSNLIRDNCLTFDNTIMNGYGINKILMNPPYSQAKNDQTQHLSELSFIQQALEMLVVGGKLCAIVPQSTMVGKNRHDKARKKQILKQHTLETVITLNKDTFHGVGVNPCIVIFKAGIKHPENKRVSFVNFEDDGHVVRKHVGLVGDGTEKGKREHLLAVLAGDEDDGTDLIVKTAIKDTDEWLHSFYYFNDGIPSEDDFYKTVANYLTFQFDMTANGKGYLFEGVEENE
B2: BcgI A subunit, E53A mutant (as a subunit of the BcgI E53A protein) (enzyme, UniProt Q07605 1-637, looked up)
chain: MVNEKTSTDQLVRRFIEDLGVTYEEQGSSNIQIKQALRSASKSKSQSGVGKPAFIFFSGNHLIIVEDKLAIDKLEYKNNDGIIDTEFPFRRDYAVNGAVHYARHIIEKTNSYKEVIAIGIAGDGLHYQIHPYFVSETELKKLPEMKSLEDISPENIEEFYKVAVLGELPKEERELREVNKIAADMHEDLRNYGQLEGEKKATVVSAILLALEEPTFSLNQLIGSDRVGGTDGEIIFNAVRVYLENAGIVPYAKVGEMLDQFIFIQRDVTLNTVNSNLEMTPLKYFATTLEAEIMDKIKSNTDFDILGNFYGEFVKYGGNDGNPLGIVLTPRHITSLMAELIGINKSDFVLDPACGTGAFLISAMNRMLGQAENDDERRDIKQNRLYGIEIQQKLFTIATTNMILRGDGKSNLIRDNCLTFDNTIMNGYGINKILMNPPYSQAKNDQTQHLSELSFIQQALEMLVVGGKLCAIVPQSTMVGKNRHDKARKKQILKQHTLETVITLNKDTFHGVGVNPCIVIFKAGIKHPENKRVSFVNFEDDGHVVRKHVGLVGDGTEKGKREHLLAVLAGDEDDGTDLIVKTAIKDTDEWLHSFYYFNDGIPSEDDFYKTVANYLTFQFDMTANGKGYLFEGVEENE

How the values were obtained:
BcgI B subunit [1] = biological target: T1, BcgI B subunit (UniProt Q07606 1-341); test: AUC
T1 sequence (looked up): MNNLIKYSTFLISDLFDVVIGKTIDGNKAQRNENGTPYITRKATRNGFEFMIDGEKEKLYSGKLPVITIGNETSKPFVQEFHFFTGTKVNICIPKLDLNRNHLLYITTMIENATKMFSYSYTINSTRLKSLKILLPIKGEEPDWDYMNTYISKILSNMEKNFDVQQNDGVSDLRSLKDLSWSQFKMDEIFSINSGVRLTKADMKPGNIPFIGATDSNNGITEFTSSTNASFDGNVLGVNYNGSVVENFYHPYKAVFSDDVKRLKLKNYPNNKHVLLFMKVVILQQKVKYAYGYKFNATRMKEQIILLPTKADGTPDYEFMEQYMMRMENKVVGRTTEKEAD

BcgI B subunit [2] = biological target: T1, BcgI B subunit; test: native MS

Binder | stoichiometry N (BcgI B subunit [1]) [A per B] | stoichiometry N (BcgI B subunit [2]) [A per B]
B1 | 2 | –
B2 | – | 2
